Measurements published in patent publication US20190030156A1 (TECHNOVAX, published 2019).

Target: RSV fusion glycoprotein (F) of RSV A2 strain virus (human respiratory syncytial virus A2 …, UniProt P03420 26-574)
Assay: cell-based or functional assay

Sequence of RSV fusion glycoprotein (F) of RSV A2 strain virus (P03420 26-574): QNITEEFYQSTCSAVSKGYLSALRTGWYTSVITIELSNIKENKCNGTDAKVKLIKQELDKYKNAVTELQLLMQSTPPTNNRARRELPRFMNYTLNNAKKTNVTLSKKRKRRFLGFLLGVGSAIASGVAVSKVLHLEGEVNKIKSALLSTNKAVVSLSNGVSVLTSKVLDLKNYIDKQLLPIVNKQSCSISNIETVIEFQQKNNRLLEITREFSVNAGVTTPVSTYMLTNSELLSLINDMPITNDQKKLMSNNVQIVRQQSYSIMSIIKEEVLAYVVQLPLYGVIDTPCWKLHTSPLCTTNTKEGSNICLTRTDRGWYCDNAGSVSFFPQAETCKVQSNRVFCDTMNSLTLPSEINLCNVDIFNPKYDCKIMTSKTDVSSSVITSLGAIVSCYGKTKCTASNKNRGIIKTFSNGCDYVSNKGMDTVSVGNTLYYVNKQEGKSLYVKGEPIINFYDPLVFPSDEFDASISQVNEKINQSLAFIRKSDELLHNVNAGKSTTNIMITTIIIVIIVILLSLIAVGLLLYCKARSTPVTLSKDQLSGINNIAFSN

B1: Palivizumab (Synagis, MedImmune) (antibody, V domains shown)
VH: QVTLRESGPALVKPTQTLTLTCTFSGFSLSTSGMSVGWIRQPPGKALEWLADIWWDDKKDYNPSLKSRLTISKDTSKNQVVLKVTNMDPADTATYYCARSMITNWYFDVWGAGTTVTVSS
VL: DIQMTQSPSTLSASVGDRVTITCKCQLSVGYMHWYQQKPGKAPKLLIYDTSKLASGVPSRFSGSGSGTEFTLTISSLQPDDFATYYCFQGSGYPFTFGGGTKLEIK
Q: For B1, which “IC50 neutralizing activity (plaque reduction neutralization test, RSV A2 on HEp-2 cells)” value is on record?
A: 2 µg/mL
